The assay addresses T1, PA-SERCA2b (recombinant SERCA2b with an N-terminal PA-tag) (human, UniProt P16615-1 1-1042).
T1 construct: human SERCA2b; cDNA in the pFastBac1 vector; source: Sf21 cells (baculovirus), solubilised with DDM, purified on anti-PA-tag NZ-1 Sepharose, eluted with PA-tag peptide; not shown: PA-tag, N-terminal, kept
Description: pull-down; PA-SERCA2b (50 pmol) incubated with FLAG–TER (125 pmol) immobilised on anti-FLAG mAb resin, or resin alone, 4 °C 2 h; buffer H (50 mM Hepes–NaOH pH 7.0, 100 mM NaCl, 1 mM MgCl2, 5 mM EGTA, 1% DDM, 20% glycerol) with or without 100 nM free Ca2+; CBB staining; also 0.25 uM PA-SERCA2b pretreated with 2.5 uM thapsigargin (less pulled down). As to conditions: both partners purified.

T1 sequence (P16615 whole entry): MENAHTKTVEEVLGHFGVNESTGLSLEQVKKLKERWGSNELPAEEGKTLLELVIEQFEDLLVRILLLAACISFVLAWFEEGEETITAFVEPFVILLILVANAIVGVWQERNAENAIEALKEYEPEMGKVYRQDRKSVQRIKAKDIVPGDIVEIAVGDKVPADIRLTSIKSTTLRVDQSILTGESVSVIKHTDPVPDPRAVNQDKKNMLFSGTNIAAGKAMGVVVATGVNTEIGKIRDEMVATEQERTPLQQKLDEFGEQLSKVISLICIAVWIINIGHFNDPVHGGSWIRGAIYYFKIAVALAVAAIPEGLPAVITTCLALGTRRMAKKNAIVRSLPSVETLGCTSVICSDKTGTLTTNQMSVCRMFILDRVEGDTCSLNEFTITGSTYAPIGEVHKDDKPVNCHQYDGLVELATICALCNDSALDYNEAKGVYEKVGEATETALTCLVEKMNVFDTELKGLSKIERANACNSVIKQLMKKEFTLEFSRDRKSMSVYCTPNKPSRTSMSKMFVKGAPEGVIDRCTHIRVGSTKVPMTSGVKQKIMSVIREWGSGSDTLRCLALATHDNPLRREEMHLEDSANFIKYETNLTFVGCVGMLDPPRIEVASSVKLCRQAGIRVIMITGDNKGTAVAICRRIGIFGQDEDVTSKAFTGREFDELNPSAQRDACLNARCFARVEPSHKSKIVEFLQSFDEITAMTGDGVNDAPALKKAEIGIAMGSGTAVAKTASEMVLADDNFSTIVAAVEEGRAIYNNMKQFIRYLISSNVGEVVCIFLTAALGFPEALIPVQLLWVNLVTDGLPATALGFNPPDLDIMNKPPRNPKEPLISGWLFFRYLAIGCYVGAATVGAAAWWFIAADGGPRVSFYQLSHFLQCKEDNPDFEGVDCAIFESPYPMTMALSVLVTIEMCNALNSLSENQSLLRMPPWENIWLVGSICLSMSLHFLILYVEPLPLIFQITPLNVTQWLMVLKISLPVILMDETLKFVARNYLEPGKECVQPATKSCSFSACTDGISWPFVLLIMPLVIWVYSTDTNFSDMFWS

B1: FLAG–TER (recombinant TER with an N-terminal FLAG-tag), from insect cells (enzyme, human, UniProt Q9NZ01 1-308, looked up)
chain: MKHYEVEILDAKTREKLCFLDKVEPHATIAEIKNLFTKTHPQWYPARQSLRLDPKGKSLKDEDVLQKLPVGTTATLYFRDLGAQISWVTVFLTEYAGPLFIYLLFYFRVPFIYGHKYDFTSSRHTVVHLACICHSFHYIKRLLETLFVHRFSHGTMPLRNIFKNCTYYWGFAAWMAYYINHPLYTPPTYGAQQVKLALAIFVICQLGNFSIHMALRDLRPAGSKTRKIPYPTKNPFTWLFLLVSCPNYTYEVGSWIGFAIMTQCLPVALFSLVGFTQMTIWAKGKHRSYLKEFRDYPPLRMPIIPFLL
notes: human trans-2-enoyl-CoA reductase (TER); cDNA in the pFastBacFLAGa vector; not shown: FLAG, N-terminal, kept
Turning to B1, the binding result is “binds”.
